Holding throughout (experiment): SEC-MALS
For orientation: SEC sorts molecules by how far they enter the pores of the column.

Test [1] addresses HCoV-229E S 2P trimer (S ectodomain, residues 17-1113) (HCoV-229E) (UniProt P15423).
In test [2] the target is HCoV-OC43 S 2P trimer (S ectodomain, residues 15-1263) (HCoV-OC43).
Test [3] has as its target HCoV-NL63 S 2P trimer (S ectodomain, residues 16-1291) (HCoV-NL63) (UniProt Q6Q1S2).

Here are results for three substances from PMC7311918.

Broadly, the stoichiometry N is the number of molecules, sites or subunits per partner or assembly. In test [1], “HCoV-229E S 2P trimer (S ectodomain, residues 17-1113) (from UniProt P15423 17-1113) (natural protein)” showed a stoichiometry N of 3.

As for “HCoV-OC43 S 2P trimer (S ectodomain, residues 15-1263) (natural protein)”, the stoichiometry N in test [2] is 3.

In test [3], “HCoV-NL63 S 2P trimer (S ectodomain, residues 16-1291) (from UniProt Q6Q1S2 16-1291) (natural protein)” returned a stoichiometry N of 3.
